Experimental data taken from paper PMC8913300, “Two distinct classes of cochaperones compete for the EEVD motif in heat shock protein 70 to tune its chaperone activities” (The Journal of Biological Chemistry, 2022).

Key:
[1] = molecular target: Hsp72 tracer FITC-Ahx-…; assay: fluorescence polarisation; saturation binding; 20 nM fluorescent Hsp72 tracer, J-domain protein titrated in 2x dilutions (110-0.013 μM told for DnaJB4); 50 mM Tris, 15 mM NaCl, 1 mM DTT, 0.01% Triton X-100, pH 8.0; 30 min at room temperature
[2] = molecular target: Hsp70 EEVD motif (Homo sapiens) (UniProt P0DMV8); settings: cited from earlier work
Sequence of Hsp70 EEVD motif (Homo sapiens) (P0DMV8 whole entry, looked up): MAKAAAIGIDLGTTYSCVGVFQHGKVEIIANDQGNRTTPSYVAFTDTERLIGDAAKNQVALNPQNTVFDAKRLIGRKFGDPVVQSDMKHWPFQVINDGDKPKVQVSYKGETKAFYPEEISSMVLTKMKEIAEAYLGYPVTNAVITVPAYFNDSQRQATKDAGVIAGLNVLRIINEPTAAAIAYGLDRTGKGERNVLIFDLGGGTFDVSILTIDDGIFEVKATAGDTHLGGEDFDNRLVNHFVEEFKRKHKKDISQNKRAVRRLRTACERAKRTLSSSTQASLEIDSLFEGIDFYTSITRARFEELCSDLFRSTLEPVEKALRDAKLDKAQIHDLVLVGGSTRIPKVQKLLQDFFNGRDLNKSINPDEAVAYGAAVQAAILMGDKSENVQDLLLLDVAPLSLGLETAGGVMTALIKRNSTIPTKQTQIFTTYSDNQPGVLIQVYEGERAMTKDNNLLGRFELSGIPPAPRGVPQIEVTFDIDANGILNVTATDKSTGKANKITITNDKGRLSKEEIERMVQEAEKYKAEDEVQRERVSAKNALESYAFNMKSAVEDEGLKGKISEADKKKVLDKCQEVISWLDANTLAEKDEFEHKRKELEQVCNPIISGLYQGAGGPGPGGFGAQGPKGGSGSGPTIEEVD

Sequence of DnaJB1 CTD I (P25685 161-243): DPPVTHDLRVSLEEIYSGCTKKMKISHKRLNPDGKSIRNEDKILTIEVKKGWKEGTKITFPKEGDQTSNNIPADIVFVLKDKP

Kd [1] [µM]	Substance	Kd [2] [µM]
2.44	DnaJB4 QPD mutant (from UniProt Q9UDY4 1-337) (natural protein)	–
–	DnaJB1 CTD I (from UniProt P25685)	15
